This is an account of results in patent US20240409617A1.

A word on the Kd: it is the concentration at which binding is half-saturated. A higher Kd goes with a looser complex. A word on the koff: it is a measure of how fast the partners let go of each other. The term kon denotes a measure of how fast the partners come together. A higher kon goes with faster complex formation.

The target of the assay is Human FcRn, biotinylated (human) (UniProt P55899).

As to Atezolizumab (antibody), the Kd came to 19.7 nM, the koff was found to be 0.00877 s⁻¹ and the kon is 445000 M⁻¹ s⁻¹.
